T1: ULK3(h) (human, UniProt Q6PHR2 1-472, limits assumed)
T1 sequence (looked up): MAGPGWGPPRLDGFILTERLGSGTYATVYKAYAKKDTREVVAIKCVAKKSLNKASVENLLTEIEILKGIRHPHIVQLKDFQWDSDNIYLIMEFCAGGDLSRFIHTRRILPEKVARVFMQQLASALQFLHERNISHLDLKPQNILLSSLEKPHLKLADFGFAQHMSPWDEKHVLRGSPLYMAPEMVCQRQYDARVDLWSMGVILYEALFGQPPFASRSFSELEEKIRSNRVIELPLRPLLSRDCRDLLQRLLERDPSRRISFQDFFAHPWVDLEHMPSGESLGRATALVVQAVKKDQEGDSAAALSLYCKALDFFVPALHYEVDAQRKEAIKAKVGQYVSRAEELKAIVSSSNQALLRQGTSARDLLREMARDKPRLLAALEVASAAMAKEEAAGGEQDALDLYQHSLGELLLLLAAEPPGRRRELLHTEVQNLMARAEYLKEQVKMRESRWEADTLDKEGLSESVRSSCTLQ

T2: NLK(h) (human, UniProt Q9UBE8 1-527, limits assumed)
T2 sequence (looked up): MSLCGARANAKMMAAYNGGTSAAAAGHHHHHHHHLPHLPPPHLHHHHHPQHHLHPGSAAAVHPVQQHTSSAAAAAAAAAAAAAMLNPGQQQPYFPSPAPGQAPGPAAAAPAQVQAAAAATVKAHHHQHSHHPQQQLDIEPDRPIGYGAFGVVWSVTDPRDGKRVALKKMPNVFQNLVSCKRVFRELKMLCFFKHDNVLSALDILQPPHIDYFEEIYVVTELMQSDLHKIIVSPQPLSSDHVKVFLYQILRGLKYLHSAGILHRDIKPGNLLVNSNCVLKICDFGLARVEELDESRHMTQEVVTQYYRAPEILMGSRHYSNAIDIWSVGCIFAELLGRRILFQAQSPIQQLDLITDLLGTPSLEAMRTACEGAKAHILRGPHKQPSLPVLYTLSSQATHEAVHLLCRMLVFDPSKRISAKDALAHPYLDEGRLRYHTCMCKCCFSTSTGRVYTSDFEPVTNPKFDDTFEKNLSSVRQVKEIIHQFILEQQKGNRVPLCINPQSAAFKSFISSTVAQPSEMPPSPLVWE

T3: Mer(h) (human, UniProt Q12866 578-872, limits assumed)
T3 sequence (looked up): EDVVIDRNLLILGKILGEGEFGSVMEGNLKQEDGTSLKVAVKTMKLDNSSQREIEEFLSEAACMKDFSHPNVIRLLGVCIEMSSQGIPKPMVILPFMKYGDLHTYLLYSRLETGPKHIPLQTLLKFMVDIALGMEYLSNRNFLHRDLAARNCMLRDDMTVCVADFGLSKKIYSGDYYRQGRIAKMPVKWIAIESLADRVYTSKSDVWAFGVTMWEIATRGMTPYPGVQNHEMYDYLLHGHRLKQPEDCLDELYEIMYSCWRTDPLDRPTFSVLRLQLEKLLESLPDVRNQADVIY


Key:
Assay in all cases: cell-based or functional assay
[1] = target: MARK1(h) (human, UniProt Q9P0L2 1-795, limits assumed)
[2] = target: FGFR3(h) (human, UniProt P22607 397-806)
[3] = target: PAK3(h) (human, UniProt O75914 1-559, limits assumed)
[4] = target: PRK2(h) (human, UniProt Q16513 501-984, limits assumed)
[5] = target: SAPK2a(h) (human, UniProt Q16539 1-360)
[6] = target: CHK2(I157T)(h) (human, UniProt O96017 5-543, limits assumed)
[7] = target: MAPKAP-K2(h) (human, UniProt P49137 46-400)
[8] = target: Met(h) (human, UniProt P08581 956-1390, limits assumed)
[9] = target: T1, ULK3(h)
[10] = target: T2, NLK(h)
[11] = target: IGF-1R(h) (human, UniProt P08069 959-1367, limits assumed)
[12] = target: MRCKα(h) (human, UniProt Q5VT25 1-473, limits assumed)
[13] = target: Arg(h) (human, UniProt P42684 38-1182, limits assumed)
[14] = target: T3, Mer(h)
[15] = target: JAK2(h) (human, UniProt O60674 808-1132, limits assumed)
[16] = target: GSK3α(h) (human, UniProt P49840 1-483)
[17] = target: PDGFRβ(h) (human, UniProt P09619 557-1106, limits assumed)
[18] = target: SAPK2a(T106M)(h) (human, UniProt Q16539 1-360)
[19] = target: EGFR(T790M,L858R)(h) (human, UniProt P00533 696-1210, limits assumed)
[20] = target: KDR(h) (human, UniProt P35968 790-1356, limits assumed)

Binder | % activity [1] [%] | % activity [2] [%] | % activity [3] [%] | % activity [4] [%] | % activity [5] [%] | % activity [6] [%] | % activity [7] [%] | % activity [8] [%] | % activity [9] [%] | % activity [10] [%] | % activity [11] [%] | % activity [12] [%] | % activity [13] [%] | % activity [14] [%] | % activity [15] [%] | % activity [16] [%] | % activity [17] [%] | % activity [18] [%] | % activity [19] [%] | % activity [20] [%]
FAKLAARLYRKALARQLGVAA [MMI-0300] | 132 | 102 | 140 | 33 | 90 | 43 | 5 | 65 | 167 | 87 | 119 | 104 | 72 | 52 | 133 | 157 | 81 | 97 | 85 | 101
KAFAKLAARLYRKALARQLGVAA [MMI-0400] | 120 | 0 | 121 | 27 | 85 | 41 | 5 | 62 | 147 | 90 | 90 | 97 | 84 | 50 | 119 | 164 | 53 | 99 | 78 | 94

— US20160200782A1 (MOERAE MATRIX, published 2016)
